Source: the supplement of paper PMC10126150
± gives the standard deviation of the averaged measurements.

System: ATP
Experiment: switch fluorescence ratio, 500 uM ATP over buffer (Cy3 cluster intensity, sum of 5 cycles each) (fold (ratio)); higher = stronger signal-on switching upon ATP binding; sequences stand for … in TCGTCGGCAGCGTCAGATGTGTATAAGAGACAGTTTTTTTTTTTTTTTTTTTTTTTTT…TC
Conditions: aptamer strand: ATP DNA aptamer (quencher-CACCTGGGGGAGTATTGCGGAGGAAGG + anchor), 100 nM annealed; ATP concentration: 500 uM
How it was run: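 Clusters with intensities outside 100-1000 RFU were excluded. The remaining Cy3-labelled switching-strand clusters on a modified Illumina MiSeq flow-cell had been annealed to 100 nM quencher-labelled ATP aptamer and imaged in selection buffer, then after 15 min with 500 uM ATP at 22 °C, for five cycles separated by NaOH stripping and re-annealing. The fluorescence ratio, averaged per switch-domain sequence, is each cluster's summed target-cycle Cy3 intensity over its summed buffer-cycle Cy3 intensity.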
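Further: ATP exposure 15 min at 22 °C before imaging.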

Row | Sequence | switch fluorescence ratio
1 | ATTTGAAACT | 1.02 ± 0.029
2 | ATTTGAAGGT | 1.01 ± 0.018
3 | ATTTGAATGG | 0.987 ± 0.027
4 | ATTTGAGGGC | 1.01 ± 0.033
5 | ATTTGAGTTT | 1.01 ± 0.038
6 | ATTTGATTTG | 1 ± 0.046
7 | ATTTGCCCAT | 0.986 ± 0.019
8 | ATTTGCGTAC | 1.277 ± 0.0018
9 | ATTTGCTATT | 1.003 ± 0.0045
10 | ATTTGCTTAG | 0.994 ± 0.021
11 | ATTTGGAATT | 1 ± 0.027
12 | ATTTGGACGT | 1.02 ± 0.016
13 | ATTTGGCGGT | 0.997 ± 0.025
14 | ATTTGGGACA | 1.01 ± 0.012
15 | ATTTGGGCTT | 1.05 ± 0.12
16 | ATTTGGGGCT | 0.981 ± 0.017
17 | ATTTGGTTTT | 0.999 ± 0.04
18 | ATTTGTAATC | 1.22 ± 0.31
19 | ATTTGTATTG | 1.01 ± 0.022
20 | ATTTGTGTAC | 1.047 ± 0.0071
21 | ATTTGTGTTA | 1.01 ± 0.013
22 | ATTTGTTAAG | 1 ± 0.016

Row | Sequence | switch fluorescence ratio
23 | ATTTGTTATC | 0.98096 ± 8.4e-05
24 | ATTTGTTGGT | 0.991 ± 0.013
25 | ATTTGTTTTT | 0.978 ± 0.01
26 | ATTTTAACT | 0.988 ± 0.013
27 | ATTTTAACTT | 1.35 ± 0.44
28 | ATTTTAAGGC | 1.002 ± 0.0054
29 | ATTTTAGAAA | 1.01 ± 0.015
30 | ATTTTAGAAC | 1.013 ± 0.0031
31 | ATTTTAGAGT | 1.018 ± 0.0063
32 | ATTTTAGCGT | 0.9958 ± 0.0062
33 | ATTTTCAGTT | 1.01 ± 0.026
34 | ATTTTCATGG | 0.954 ± 0.02
35 | ATTTTCCAGT | 1.01 ± 0.011
36 | ATTTTCGGCG | 1.001 ± 0.0054
37 | ATTTTCTTCA | 1.02 ± 0.016
38 | ATTTTCTTTT | 1.06 ± 0.079
39 | ATTTTGAAGC | 0.991 ± 0.016
40 | ATTTTGAGTT | 0.982 ± 0.016
41 | ATTTTGCAAG | 0.994 ± 0.018
42 | ATTTTGGAGA | 1.02 ± 0.026
43 | ATTTTGGAGG | 0.9908 ± 0.0057
44 | ATTTTGTCAT | 0.972 ± 0.019

Row | Sequence | switch fluorescence ratio
45 | ATTTTGTCCT | 1.08 ± 0.11
46 | ATTTTTAGAA | 1.03 ± 0.013
47 | ATTTTTAGTT | 0.991 ± 0.037
48 | ATTTTTCGGC | 0.99 ± 0.02
49 | ATTTTTCTTT | 0.992 ± 0.012
50 | ATTTTTGATT | 0.984 ± 0.018
51 | ATTTTTGCGC | 1.03 ± 0.055
52 | ATTTTTGGGT | 0.994 ± 0.031
53 | ATTTTTGTTC | 1.0252 ± 0.00061
54 | ATTTTTTAAC | 1.019 ± 0.0096
55 | ATTTTTTAGG | 0.993 ± 0.025
56 | ATTTTTTCAA | 0.981 ± 0.015
57 | ATTTTTTCTG | 0.9907 ± 0.0059
58 | ATTTTTTGCG | 1 ± 0.028
59 | ATTTTTTGGC | 0.996 ± 0.01
60 | ATTTTTTGTA | 0.984 ± 0.026
61 | ATTTTTTTTC | 0.989 ± 0.022
62 | CAAAAAATAC | 2.23 ± 1.7
63 | CAAAAAATC | 1.02 ± 0.028
64 | CAAAAAGAGC | 0.976 ± 0.015
65 | CAAAAAGGGA | 1.0178 ± 0.00094
66 | CAAAAAGTTT | 1.05 ± 0.097

Row | Sequence | switch fluorescence ratio
67 | CAAAAGACGG | 1.04 ± 0.02
68 | CAAAAGTGAT | 1.01 ± 0.024
69 | CAAAAGTGGT | 1.01 ± 0.018
70 | CAAACGCCCG | 0.9968 ± 0.0073
71 | CAAACGTGTG | 0.991 ± 0.041
72 | CAAACTAGC | 0.99 ± 0.003
73 | CAAAGAGTGG | 1.0063 ± 0.00092
74 | CAAAGATAGG | 0.996 ± 0.018
75 | CAAAGCAAAA | 2.36 ± 2
76 | CAAAGCACCG | 1.031 ± 0.0063
77 | CAAAGCATCA | 1.05 ± 0.029
78 | CAAAGGACCT | 1.136 ± 0.0082
79 | CAAAGGACGG | 1.25 ± 0.38
80 | CAAAGGATAC | 1.2 ± 0.013
81 | CAAAGGGATA | 1 ± 0.054
82 | CAAAGGTCTC | 0.986 ± 0.023
83 | CAAAGTAGGC | 0.958 ± 0.018
84 | CAAAGTGAAC | 1.01 ± 0.017
85 | CAAATAACGG | 1 ± 0.023
